Source: the RNAGym collection of RNA variant scans (doi:10.7554/elife.90254)

B1: OR4K15 (parent)
chain: GUUAACGGUCAUAGGCCAUGGAAACUAGGAGCACCAUUUCGCUGCCAGUGAAGAAAUGAACAAAGAAAAUCUGGGCCAGGCAGGCAUCAAAAGAAAUAGUCUUGCGCUCAACCAGAAAGUCUGUAAUCAUUUUAAGGGUA

Variants of: B1
Assay: self-cleavage, relative activity (ratio to wild type); higher = more cleavage; in vitro, sequencing; the parent is a self-cleaving ribozyme

Row | Variant | self-cleavage
1 | GUUAACGGUCAUAGGCCAUGGAAACUAGGAGCACCAUAUCGCUGCCAGUGAAGAAAUGAACAAAGAAAAUCUGGGCCAGGCAGGCAUCGAAAGAAAUAGUCUUGCGCUCAACCAGAAAGUCUGUAAUCAUUUUAAGGGUA | 2.67
2 | GUUAACGGUCAUAGGCCAUGGAAACUAGGAGCACCAUAUCGCUGCCAGUGAAGAAAUGAACAAAGAAAAUCUGGGCCAGGCAGGCAUCAAAAGAAAUAGUCUUGCGCUCGACCAGAAAGUCUGUAAUCAUUUUAAGGGUA | 0.16
3 | GUUAACGGUCAUAGGCCAUGGAAACUAGGAGCACCAGUUCGCUGCCAGUGAAGAAAUGAACAAAGAAAAUCUGGGCCAGGCAGGCAUCAAAAGAAAUAGUCUUGCGCUCAACCAGAAGGUCUGUAAUCAUUUUAAGGGUA | 0.99
4 | GUUAACGGUCAUAGGCCAUGGAAACUAGGAGCACCAUCUCGCUGCCAGUGAAGAAAUGAACAAAGAAAAUCUGGGCCAGGCAGGCAUCAAAAGAAAUAGUCUUGCGCUCAACCAGAAAGUCUGUAAUCAUUUUAAGGGUA | 1.45
5 | GUUAACGGUCAUAGGCCAUGGAAACUAGGAGCACCAUAUCGCUGCCAGUGAAGAAAUGAACAAAGAAAAUCUGGGCCAGGCAGGCAUCAAAAGAAAUAGUCUUGCGCUCAACCAGAAAGUCUGUAAUCAUUUUAAGGGUA | 1.44
6 | GUUAACGGUCAUAGGCCAUGGAAACUAGGAGCACCAUAUCGCUGCCAGUGAAGAAAUGAACAAAGAAAAUCUGGGCCAGGCAGGCAUCAAAAGAAAUAGUCUUGCGCUCAACCAGAAAGUCUGUAAUCAUUUUAGGGGUA | 2.17
7 | GUUAACGGUCAUAGGCCAUGGAAACUAGGAGCACCAGUUCGCUGCCAGUGAAGAAAUGAACAAAGAAAAUCUGGGCCAGGCAGGCAUCAGAAGAAAUAGUCUUGCGCUCAACCAGAAAGUCUGUAAUCAUUUUAAGGGUA | 0.38
8 | GUUAACGGUCAUAGGCCAUGGAAACUAGGAGCACCAUAUCGCUGCCAGUGAAGAAAUGAACAAAGAAAAUCUGGGCCAGGCAGGCAUCAAAAGAAAUAGUCUUGCGCUCAACCAGAAAGUCUGUAAUCAUUUUAAGUGUA | 2.73
9 | GUUAACGGUCAUAGGCCAUGGAAACUAGGAGCACCAUAUCGCUGCCAGUGAAGAAAUGAACAAAGAAGAUCUGGGCCAGGCAGGCAUCAAAAGAAAUAGUCUUGCGCUCAACCAGAAAGUCUGUAAUCAUUUUAAGGGUA | 0.82
10 | GUUAACGGUCAUAGGCCAUGGAAACUAGGAGCACCAUAUCGCUGCCAGUGAAGAAAUGAACAAAGAAAAUCUGGGCCAGGCAGGCAUCAAAAGAAAUAGUCUUGCGCUCAACCAGAAAGUCUGUAAUCAUUUUGAGGGUA | 1.9
11 | GUUAACGGUCAUAGGCCAUGGAAACUAGGAGCACCAUAUCGCUGCCAGUGGAGAAAUGAACAAAGAAAAUCUGGGCCAGGCAGGCAUCAAAAGAAAUAGUCUUGCGCUCAACCAGAAAGUCUGUAAUCAUUUUAAGGGUA | 1.33
12 | GUUAACGGUCAUAGGCCAUGGAAACUAGGAGCACCAUAUCGCUGCCAGUGAAGAAAUGAACAAAGAAAAUCUGGGCCAGGCAGGCAUCAAAAGGAAUAGUCUUGCGCUCAACCAGAAAGUCUGUAAUCAUUUUAAGGGUA | 1.85
13 | GUUAACGGUCAUAGGCCAUGGAAACUAGGAGCACCAUAUCGCUGCCAGUGAAGAAAUGAACAAAGAAAAUCUGGGCCAGGCAGGCAUCAAAAGCAAUAGUCUUGCGCUCAACCAGAAAGUCUGUAAUCAUUUUAAGGGUA | 1.68
14 | GUUAACGGUCAUAGGCCAUGGAAACUAGGAGCACCAUAUCGCUGCCAGUGAAGAAAUGAACAAAGAAAAUCUGGGCCAGGCAGGCAUCAAAAGUAAUAGUCUUGCGCUCAACCAGAAAGUCUGUAAUCAUUUUAAGGGUA | 1.28
15 | GUUAACGGUCAUAGGCCAUGGAAACUAGGAGCACCAUAUCGCUGCCAGUGAAGAAAUGAACAAAGAAAAUCUGAGCCAGGCAGGCAUCAAAAGAAAUAGUCUUGCGCUCAACCAGAAAGUCUGUAAUCAUUUUAAGGGUA | 0.21
16 | GUUAACGGUCAUAGGCCAUGGAAACUAGGAGCACCAUAUCGCUGCCAGUGAAGAAAUGGACAAAGAAAAUCUGGGCCAGGCAGGCAUCAAAAGAAAUAGUCUUGCGCUCAACCAGAAAGUCUGUAAUCAUUUUAAGGGUA | 1.14
17 | GUUAACGGUCAUAGGCCAUGGAAACUAGGAGCACCAUAUCGCUGCCAGUAAAGAAAUGAACAAAGAAAAUCUGGGCCAGGCAGGCAUCAAAAGAAAUAGUCUUGCGCUCAACCAGAAAGUCUGUAAUCAUUUUAAGGGUA | 1.07
18 | GUUAACGGUCAUAGGCCAUGGAAACUAGGAGCACCAUACCGCUGCCAGUGAAGAAAUGAACAAAGAAAAUCUGGGCCAGGCAGGCAUCAAAAGAAAUAGUCUUGCGCUCAACCAGAAAGUCUGUAAUCAUUUUAAGGGUA | 1.62
19 | GUUAACGGUCAUAGGCCAUGGAAACUAGGAGCACCAUAUCGCUGCCAGUGAGGAAAUGAACAAAGAAAAUCUGGGCCAGGCAGGCAUCAAAAGAAAUAGUCUUGCGCUCAACCAGAAAGUCUGUAAUCAUUUUAAGGGUA | 1.63
20 | GUUAACGGUCAUAGGCCAUGGAAACUAGGAGCACCAUAUCGCUGCCAGUGAAGAAAUGAACAAAGAAAAUCUGGGCCAGGCAGGCAACAAAAGAAAUAGUCUUGCGCUCAACCAGAAAGUCUGUAAUCAUUUUAAGGGUA | 2.41
21 | GUUAACGGUCAUAGGCCAUGGAAACUAGGAGCACCAGUUCGCUGCCAGUGAAGAAAUGAACAAAGAAAAUCUGGGCCAGGCAGGCAUCAAAAGAAGUAGUCUUGCGCUCAACCAGAAAGUCUGUAAUCAUUUUAAGGGUA | 1.97

Row | Variant | self-cleavage
22 | GUUAACGGUCAUAGGCCAUGGAAACUAGGAGCACCAGUUCGCUGCCAGUGAAGAAAUGAACAAAGAAAAUCUGGGCCAGGCAGGCAACAAAAGAAAUAGUCUUGCGCUCAACCAGAAAGUCUGUAAUCAUUUUAAGGGUA | 1.38
23 | GUUAACGGUCAUAGGCCAUGGAAACUAGGAGCACCAUAUCGCUGCCAGUGAAGAAAUGAACAAAGAAAAUCUGGGCCAGGCAGGCAUCAAAAGAAAUAGUCUUGCGCUCAACCAGAAAGUCUGUAAUCAUUCUAAGGGUA | 1.58
24 | GUUAACGGUCAUAGGCCAUGGAAACUAGGAGCACCAUAUCGCUGCCAGUGAAGGAAUGAACAAAGAAAAUCUGGGCCAGGCAGGCAUCAAAAGAAAUAGUCUUGCGCUCAACCAGAAAGUCUGUAAUCAUUUUAAGGGUA | 0.28
25 | GUUAACGGUCAUAGGCCAUGGAAACUAGGAGCACCAUAUCGCUGCCAGUGAAGAAAUGAACAAAGAAAAUCUGGGCCAGGCAGGCAUCAAAAGAAAUAGUCUUGCGCUCAACCAGAAAGUCUGAAAUCAUUUUAAGGGUA | 0.87
26 | GUUAACGGUCAUAGGCCAUGGAAACUAGGAGCACCAUAUCGCUGCCAGUGAAGAAACGAACAAAGAAAAUCUGGGCCAGGCAGGCAUCAAAAGAAAUAGUCUUGCGCUCAACCAGAAAGUCUGUAAUCAUUUUAAGGGUA | 0.69
27 | GUUAACGGUCAUAGGCCAUGGAAACUAGGAGCACCAUAUCGCUGCCAGUGAAGAAAUGAACAAAGAAAAUCUGGGCCAGGCAGGCAUCAAAAGAAAUAGUCUUGCGCUCAACCAGAAGGUCUGUAAUCAUUUUAAGGGUA | 2.73
28 | GUUAACGGUCAUAGGCCAUGGAAACUAGGAGCACCAUAUCGCUGCCAGUGAAGAAAUGAACAAAGAAAAUCUGGGCCAGGCAGGCAUCAAAAAAAAUAGUCUUGCGCUCAACCAGAAAGUCUGUAAUCAUUUUAAGGGUA | 2.09
29 | GUUAACGGUCAUAGGCCAUGGAAACUAGGAGCACCAGUUCGCUGCCAGUGAAGAAAUGAACAAAGAAAAUCUGGGCCAGGCAGGCAUCAAAAGAAAUAGUCUUGCGCUCAACCAGAAAGUCUGUAAUCGUUUUAAGGGUA | 1.12
30 | GUUAACGGUCAUAGGCCAUGGAAACUAGGAGCACCAUAUCGCUGCCAAUGAAGAAAUGAACAAAGAAAAUCUGGGCCAGGCAGGCAUCAAAAGAAAUAGUCUUGCGCUCAACCAGAAAGUCUGUAAUCAUUUUAAGGGUA | 1.31
31 | GUUAACGGUCAUAGGCCAUGGAAACUAGGAGCACCAUAUCGCUGCCAGUGAAGAAAUGAACAAAGAAAAUCUGGGCCAGGCAGGCAUCAAAAGAAAUAGUCUUGCGCGCAACCAGAAAGUCUGUAAUCAUUUUAAGGGUA | 0.01
32 | GUUAACGGUCAUAGGCCAUGGAAACUAGGAGCACCAUAUCGCUGCCAGUGAAGAAAUGAACAAAGAAAAUCUGGGCCAGGCAGGCAUCAAAAGAAAUAGUCUUGCGCACAACCAGAAAGUCUGUAAUCAUUUUAAGGGUA | 0.04
33 | GUUAACGGUCAUAGGCCAUGGAAACUAGGAGCACCAUAUCGCUGCCAGUGAAGAAAUGAGCAAAGAAAAUCUGGGCCAGGCAGGCAUCAAAAGAAAUAGUCUUGCGCUCAACCAGAAAGUCUGUAAUCAUUUUAAGGGUA | 1.32
34 | GUUAACGGUCAUAGGCCAUGGAAACUAGGAGCACCAUAUCGCUGCCAGUGAAGAAAUGAACAAAGAAAAUCUGGGCCAGGCAGGCAUCAGAAGAAAUAGUCUUGCGCUCAACCAGAAAGUCUGUAAUCAUUUUAAGGGUA | 1.18
35 | GUUAACGGUCAUAGGCCAUGGAAACUAGGAGCACCAUAUCGCUGCCAGUGAAGAAAUGAACAAAGAAAAUCUGGGCCAGGCAGGCAUCAAAAGAAAUAGUCUCGCGCUCAACCAGAAAGUCUGUAAUCAUUUUAAGGGUA | 0.64
36 | GUUAACGGUCAUAGGCCAUGGAAACUAGGAGCACCAUAUCGCUGCCAGUGAAGAAAUGAACAAAGAAAAUCUGGGCCAGGCAGGCAUCAAAAGAAAUAGUCUGGCGCUCAACCAGAAAGUCUGUAAUCAUUUUAAGGGUA | 0.04
37 | GUUAACGGUCAUAGGCCAUGGAAACUAGGAGCACCAUAUCGCUGCCAGUGAAGAAAUGAACAAAGAAAAUCUGGGCCAGGCAGGCAUCAAAAGAAAUAGUCUUGCGCUCAACCAGGAAGUCUGUAAUCAUUUUAAGGGUA | 0.81
38 | GUUAACGGUCAUAGGCCAUGGAAACUAGGAGCACCAUAUCGCUGCCAGUGAAGAAAUGAACAAAGAAAAUCUGGGCCAGGCAGGCAUCAAAAGAAAUAGUCUUACGCUCAACCAGAAAGUCUGUAAUCAUUUUAAGGGUA | 0
39 | GUUAACGGUCAUAGGCCAUGGAAACUAGGAGCACCAUAUCGCUGCCAGUGAAGAACUGAACAAAGAAAAUCUGGGCCAGGCAGGCAUCAAAAGAAAUAGUCUUGCGCUCAACCAGAAAGUCUGUAAUCAUUUUAAGGGUA | 1.55
40 | GUUAACGGUCAUAGGCCAUGGAAACUAGGAGCACCAUAUCGCUGCCAGUGAAGAAAUGAACAAAGAAAAUCUGGCCCAGGCAGGCAUCAAAAGAAAUAGUCUUGCGCUCAACCAGAAAGUCUGUAAUCAUUUUAAGGGUA | 0.03
41 | GUUAACGGUCAUAGGCCAUGGAAACUAGGAGCACCAUAUCGCUGCCAGCGAAGAAAUGAACAAAGAAAAUCUGGGCCAGGCAGGCAUCAAAAGAAAUAGUCUUGCGCUCAACCAGAAAGUCUGUAAUCAUUUUAAGGGUA | 1.72
